Assay results as given in PMC3738515, “HLA-DO as the Optimizer of Epitope Selection for MHC Class II Antigen Presentation” (PLoS ONE, 2013).
Where two headings read alike, the source gives them in different places. Each block holds one molecule with its values, some of them ahead of it. No end group written: not given here.

Columns and labels:
HLA-DR1 (DR1) [1] = molecular target: T1, HLA-DR1 (DR1) (Homo sapiens, UniProt P01903+P01911, A100R/D57E/F55L/F60I/F76Y/I96L/L162R/M171V/P40L/Q125E/R42F/V115G/Y59C); experiment: Fluorescent peptide association to soluble DR1 (spin-column separation, fluorescence read-out); type: binding
HLA-DR1 (DR1) [2] = molecular target: T1, HLA-DR1 (DR1); experiment: Dissociation of fluorescent peptide/DR1 complexes; type: binding; conditions: for DM sensitivity of DR1/peptide complex (dissociation in the presence of DM): 10 hours
[3] = tested on: Mags.DO5 monoclonal antibody; experiment: SPR binding to immobilized Mags.DO5 antibody surface
Protocol: Purified DM/DO complexes were further evaluated by binding to anti-HA and anti-His antibody immobilized chip surfaces using BIAcore Surface Plasmon Resonance (SPR) instrument (Fig. 1C and D). […] To ensure that the observed binding was due to binding of DM/DO to Mags.DO5 mAb, we preincubated DM/DO complexes with soluble Mags.DO5 prior to injecting it over Mags.DO5 immobilized surface.

HLA-DO (DO) = experiment: SPR binding to DO captured on anti-His antibody surface; set-up: species or system human; conditions: soluble DM 4 µM injected over DO captured by anti-His antibody; pH 5.5, 27°C
soluble HLA-DR1 (human) [4] = molecular target: soluble HLA-DR1 (human)
[5] = molecular target: recombinant soluble HLA-DO (human) (UniProt P06340); experiment: SPR; DO (Ni-NTA purified) captured on anti-His antibody CM5 chip; analyte 4 µM; citrate-phosphate pH 5.5, 150 mM NaCl, 0.005% Tween-20; 27°C, 5–10 µL/min
[6] = molecular target: co-expressed DM/DO complex (human) (UniProt P06340); experiment: SPR
soluble HLA-DR1 (human) [7] = experiment: fluorescent peptide association kinetics (Sephadex G-50 spin column, fluorescence); DR1 or DR1βG86Y 1 µM with fluorescent peptide 30 µM, no accessory molecules; 37°C, citrate-phosphate buffer pH 5.0; up to 10 h; unbound peptide removed on G-50 spin columns
soluble HLA-DR1 (human) [8] = experiment: fluorescent peptide association kinetics (Sephadex G-50 spin column, fluorescence); as a1 with 1 µM DM added
soluble HLA-DR1 (human) [9] = experiment: fluorescent peptide association kinetics (Sephadex G-50 spin column, fluorescence); as a1 with 4 µM DO added
soluble HLA-DR1 (human) [10] = experiment: fluorescent peptide association kinetics (Sephadex G-50 spin column, fluorescence); as a1 with 1 µM DM and 4 µM DO added
HLA-DM (DM) = conditions: DO solution 5 µM over DM captured by anti-FLAG antibody; pH 5.5, 27°C

Molecule: H5N1-HA1(259–274) peptide
observed initial binding rate (+ DM and DO) (Arbitrary Fluorescence Units min^-1) (soluble HLA-DR1 (human) [4]): 2200
observed initial binding rate (+ DM) (Arbitrary Fluorescence Units min^-1) (soluble HLA-DR1 (human) [4]): 665
observed initial binding rate (+ DO) (Arbitrary Fluorescence Units min^-1) (soluble HLA-DR1 (human) [4]): 257

Molecule: HA(306–318) peptide
observed initial binding rate (+ DM and DO) (Arbitrary Fluorescence Units min^-1) (soluble HLA-DR1 (human) [4]): 1780
observed initial binding rate (+ DM) (Arbitrary Fluorescence Units min^-1) (soluble HLA-DR1 (human) [4]): 463
observed initial binding rate (+ DO) (Arbitrary Fluorescence Units min^-1) (soluble HLA-DR1 (human) [4]): 523

Molecule: HA(306–318): derived from Texas 77 flu strain HA protein peptide; immunodominant HLA-DR1 binding peptide (CPKYVKQNTLKLAT)
Effect of DO on peptide binding to peptide-receptive DR1 (DR-receptive) (HLA-DR1 (DR1) [1]): enhanced
Enhancement of initial binding rate by DO compared to DR1 alone (HLA-DR1 (DR1) [1]): 3–4 folds
Effect of DO on maximum binding of peptide to DR1 (HLA-DR1 (DR1) [1]; pH 5): increasing the binding maxima
Observed initial binding rate, + DM (HLA-DR1 (DR1) [1]; pH 5): 463 Arbitrary Fluorescence Units min^−1
Observed initial binding rate, + DM and DO (HLA-DR1 (DR1) [1]; pH 5): 1779 Arbitrary Fluorescence Units min^−1
Observed initial binding rate, + DO (HLA-DR1 (DR1) [1]; pH 5): 523 Arbitrary Fluorescence Units min^−1
Observed initial binding rate, DR1 alone (HLA-DR1 (DR1) [1]; pH 5): 132 Arbitrary Fluorescence Units min^−1
Effect of DO (or DM+DO) on dissociation of peptide from DR1 (HLA-DR1 (DR1) [2]; pH 5): did not affect
DM sensitivity of DR1/peptide complex (dissociation in the presence of DM) (HLA-DR1 (DR1) [2]; pH 5.0, 37°C): DM-resistant

Molecule: fluorescein-CAGFKGEQGPKGEP [CII(259–273) peptide]
observed initial binding rate (Arbitrary Fluorescence Units min^-1) (soluble HLA-DR1 (human) [7]): 500
observed initial binding rate (+ DM) (Arbitrary Fluorescence Units min^-1) (soluble HLA-DR1 (human) [8]): 1590
observed initial binding rate (+ DO) (Arbitrary Fluorescence Units min^-1) (soluble HLA-DR1 (human) [9]): 137
observed initial binding rate (+ DM and DO) (Arbitrary Fluorescence Units min^-1) (soluble HLA-DR1 (human) [10]): 1000

Now from value to molecule:

Observed initial binding rate, DR1 alone (HLA-DR1 (DR1) [1]; DR1 1 µM, fluorescent peptide 30 µM, 37°C, Citrate-Phosphate buffer pH 5.0, slope of linear fit of early data points (~1 hour), no accessory molecules): 500 Arbitrary Fluorescence Units min^−1
Observed initial binding rate, + DM and DO (HLA-DR1 (DR1) [1]; DR1 1 µM, peptide 30 µM, DM 1 µM and DO 4 µM, 37°C, pH 5.0, initial rate over 1 hour): 1002 Arbitrary Fluorescence Units min^−1
Observed initial binding rate, + DM (HLA-DR1 (DR1) [1]; DR1 1 µM, peptide 30 µM, DM 1 µM, 37°C, pH 5.0, initial rate over 1 hour): 1593 Arbitrary Fluorescence Units min^−1
Observed initial binding rate, + DO (HLA-DR1 (DR1) [1]; DR1 1 µM, peptide 30 µM, DO 4 µM, 37°C, pH 5.0, initial rate over 1 hour): 137 Arbitrary Fluorescence Units min^−1
Effect of DO on peptide binding to peptide-receptive DR1 (DR-receptive) (HLA-DR1 (DR1) [1]; DR1 pre-incubated with unlabeled HA(anchorless) for three days, no DM): reduced
Effect of DO (or DM+DO) on dissociation of peptide from DR1 (HLA-DR1 (DR1) [2]; DO 4 µM, with or without DM 1 µM, 10 hour kinetic experiment, pH 5.0, 37°C): no effect
DM sensitivity of DR1/peptide complex (dissociation in the presence of DM) (HLA-DR1 (DR1) [2]; complexes formed over 3 days at 37°C, DM 1 µM, competing HA(306–318) 50 µM, pH 5.0, 37°C): DM-sensitivity
Molecule: CAGFKGEQGPKGEP [CII(259–273), derived from Type II Collagen peptide used to induce arthritis in mice models]

SPR binding to Mags.DO5 mAb immobilized surface after preincubation with soluble Mags.DO5 ([3]; DM/DO preincubated with soluble Mags.DO5 prior to injection): about 100 RU
SPR binding to Mags.DO5 mAb immobilized surface ([3]; Ni-NTA purified DM/DO complexes, pH 5.5 running buffer, 27°C): approximately 600 RU
Molecule: DM/DO: co-expressed soluble DM/DO complex purified by Ni-NTA or Mags.DO5

SPR binding of DM to captured DO (HLA-DO (DO)): 490 RU
Molecule: DM: soluble HLA-DM purified on M2 FLAG affinity column

response at 4 µM [5]: 100 RU
Molecule: mutant DR1, DR1βG86Y (from UniProt P01903 26-216) (receptor)

SPR binding response [6]: 337 RU
Molecule: soluble HLA-DR1 (from UniProt P01903 26-216) (receptor)

SPR maximum binding of DO to immobilized DM (HLA-DM (DM)): 500 RU
B1: DO: recombinant soluble HLA-DO heterodimer with leucine zipper, His- and HA-tags, expressed in Hi5 insect cells (protein)
chain 1: TKADHMGSYGPAFYQSYGASGQFTHEFDEEQLFSVDLKKSEAVWRLPEFGDFARFDPQGGLAGIAAIKAHLDILVERSNRSRAINVPPRVTVLPKSRVELGQPNILICIVDNIFPPVINITWLRNGQTVTEGVAQTSFYSQPDHLFRKFHYLPFVPSAEDVYDCQVEHWGLDAPLLRHWELQVPIPPPDAME
chain 2: TDSPEDFVIQAKADCYFTNGTEKVQFVVRFIFNLEEYVRFDSDVGMFVALTKLGQPDAEQWNSRLDLLERSRQAVDGVCRHNYRLGAPFTVGRKVQPEVTVYPERTPLLHQHNLLHCSVTGFYPGDIKIKWFLNGQEERAGVMSTGPIRNGDWTFQTVVMLEMTPELGHVYTCLVDHSSLLSPVSVEWRAQSEYSWRK
modifications: left off: leucine zipper (acidic or basic chain, which not stated; flanked by spacers), C-terminal, state not stated | His tag, C-terminal, kept | leucine zipper (acidic or basic chain, which not stat
